We go through two molecules from patent publication US20260274981A1 (VIB VZW, published 2026).

For assay [1], the target named is T1, cynomolgus TfR overexpressed on CHO cells (cynomolgus monkey, UniProt Q5RDH6 1-760 (Pongo abelii entry)).
T1 construct: construct is TfR followed by an HA tag and IRES-GFP; also called cynomolgus monkey TfR1; NHP TfR
T1 chain: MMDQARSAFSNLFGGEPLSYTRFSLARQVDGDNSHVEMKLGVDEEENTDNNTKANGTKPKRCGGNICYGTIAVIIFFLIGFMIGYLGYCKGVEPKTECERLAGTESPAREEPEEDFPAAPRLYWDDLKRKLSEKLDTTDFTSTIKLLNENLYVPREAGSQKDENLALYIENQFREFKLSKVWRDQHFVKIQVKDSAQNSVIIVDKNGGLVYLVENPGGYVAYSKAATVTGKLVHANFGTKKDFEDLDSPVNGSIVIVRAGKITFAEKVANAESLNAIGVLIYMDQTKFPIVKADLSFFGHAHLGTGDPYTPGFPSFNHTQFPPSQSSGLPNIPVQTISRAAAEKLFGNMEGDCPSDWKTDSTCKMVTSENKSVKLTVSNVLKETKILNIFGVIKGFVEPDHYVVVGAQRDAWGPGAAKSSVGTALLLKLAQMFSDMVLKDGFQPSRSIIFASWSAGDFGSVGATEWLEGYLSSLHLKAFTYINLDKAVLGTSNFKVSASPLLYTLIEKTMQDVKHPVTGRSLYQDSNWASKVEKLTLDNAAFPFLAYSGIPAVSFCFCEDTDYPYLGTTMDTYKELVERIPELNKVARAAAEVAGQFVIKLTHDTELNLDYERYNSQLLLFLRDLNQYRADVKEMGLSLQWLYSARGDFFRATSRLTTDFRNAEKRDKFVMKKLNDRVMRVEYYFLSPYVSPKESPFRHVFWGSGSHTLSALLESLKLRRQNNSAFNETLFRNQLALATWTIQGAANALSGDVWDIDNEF
In words: flow cytometry on CHO cells overexpressing cynomolgus TfR (CHO-cynoTfR), VHH detected with anti-FLAG-iFluor647; median Flag-i647 intensity in total GFP cells. How it is done: (§1) Output libraries were screened with flow cytometry to find binders to human TfR overexpressing cells (FIG. 1A). […] Binding kinetics to recombinant human and cynomolgus TfR were further characterized with Surface Plasmon Resonance (SPR).
(§2) Periplasmic extracts diluted 1:10 in PBS 2% FBS, or a dilution range of different VHH or bispecific antibody concentrations prepared in PBS 2% FBS, were incubated with 0.1 million CHO cells overexpressing either the human, cynomolgus or mouse TfR for 30 min at 4° C. As control for background binding, periplasmic extracts, VHHs or bispecific antibodies were also incubated with 0.1 million CHO cells overexpressing GFP. Binding of VHHs was next resolved by a second step 30 min incubation at 4° C. with an anti-FLAG-iFluor647 antibody (A01811, Genscript) diluted 1:500 for screening and 1:250 for validation assays, or with anti-human IgG Fc-Alexa Fluor647 antibody (410714, BioLegend) diluted 1:200. […] Cells were fixed with 4% paraformaldehyde before being analyzed. Flp-In™-CHO™ cells used as unstained control and single stain controls were used to determine the cut-off point between background fluorescence and positive populations. […] The data was acquired with an Attune Nxt flow cytometer (Invitrogen) and analyzed by FCS Express 7 Research Edition.
Background: A flow cytometer gives signals particle by particle.

For assay [2], the target named is T2, mouse TfR overexpressed on CHO cells (mouse, UniProt Q62351 1-763).
T2 construct: whole, on cells
T2 sequence (Q62351 whole entry): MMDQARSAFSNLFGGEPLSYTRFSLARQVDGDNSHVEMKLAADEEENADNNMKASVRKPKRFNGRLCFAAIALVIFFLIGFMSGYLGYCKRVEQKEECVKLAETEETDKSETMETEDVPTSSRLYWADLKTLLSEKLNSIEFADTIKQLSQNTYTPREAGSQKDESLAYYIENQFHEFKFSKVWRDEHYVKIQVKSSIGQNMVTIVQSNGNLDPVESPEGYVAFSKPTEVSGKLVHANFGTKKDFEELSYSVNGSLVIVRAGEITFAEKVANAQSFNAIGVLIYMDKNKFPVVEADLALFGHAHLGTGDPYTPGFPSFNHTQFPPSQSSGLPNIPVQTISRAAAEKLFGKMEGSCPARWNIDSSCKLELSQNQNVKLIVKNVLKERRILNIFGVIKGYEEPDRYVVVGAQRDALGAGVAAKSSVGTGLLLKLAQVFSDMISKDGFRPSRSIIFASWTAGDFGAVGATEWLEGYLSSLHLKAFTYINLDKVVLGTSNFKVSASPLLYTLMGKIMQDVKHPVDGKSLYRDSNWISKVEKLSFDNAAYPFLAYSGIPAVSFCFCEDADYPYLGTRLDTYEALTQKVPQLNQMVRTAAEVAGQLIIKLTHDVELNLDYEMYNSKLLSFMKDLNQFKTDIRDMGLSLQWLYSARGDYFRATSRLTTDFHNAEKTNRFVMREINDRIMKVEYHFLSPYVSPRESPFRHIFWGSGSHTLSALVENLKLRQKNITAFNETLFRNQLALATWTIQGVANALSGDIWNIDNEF
In words: flow cytometry on CHO cells overexpressing mouse TfR (CHO-mTfR), VHH detected with anti-FLAG-iFluor647; median Flag-i647 intensity in total GFP cells. The procedure:
as §1, §2

Assay [3] addresses T3, human TfR overexpressed on CHO cells (human, UniProt P02786 1-760).
T3 construct: construct is TfR followed by an HA tag and IRES-GFP; also called hTfR; human transferrin receptor
Nature of the assay: flow cytometry on CHO cells overexpressing human TfR (CHO-hTfR), VHH detected with anti-FLAG-iFluor647; median Flag-i647 intensity in total GFP cells. How it is done:
as §1, §2

B1: BBB00533 (VHH)
VHH: QVQLQESGGGSVQPGGSLRLSCTASGRTFNYAMGWFRQAPGKNREFVATIDWKDGSSYYLDSVRGRFTIERDDAKNTVYLQMNSLKPEDAAVYTCAVGDGDYCSTYTCAAEVEYDYWGQGTQVTVSS
notes: Lead VHH expressed in E. coli TG1 and purified by IMAC; detected with anti-FLAG antibody in flow cytometry; also called BBB00533 VHH; not shown: C-terminal 3xFlag/6xHis tag from expression vector pBDS119
The EC50 (read off the curve) is the concentration that produces a half-maximal response. A lower EC50 (read off the curve) goes with greater potency. For the molecule B1, the “EC50 (read off the curve)” value was roughly 40 nM in assay [1] and roughly 50 nM in assay [3]. Moreover, the binding result in assay [2] is “no binding (tested: Log10 Conc 3.5 (about 3000 nM))”.

B2: BBB00515 (VHH)
VHH: QVQLQESGGGLVQAGGSLRLSCAASGSIFSINAMGWYRQAPGKQRELVAVITSGGSTIYADSVKGRFTISRDNAENTVYLQMNSLKPEDTAVYYCNAHVGLKVPTIQELSLGFGSWGQGTQVTVSS
notes: Lead VHH expressed in E. coli TG1 and purified by IMAC; detected with anti-FLAG antibody in flow cytometry; also called BBB00515 VHH; not shown: C-terminal 3xFlag/6xHis tag from expression vector pBDS119
Consider B2, for which the “EC50 (read off the curve)” value is roughly 8 nM in assay [1] and roughly 50 nM in assay [3]. Moreover, in assay [2], the binding result is recorded as “no binding (tested: Log10 Conc 3.5 (about 3000 nM))”.
